T1: RAN1, full-length, purified recombinant (A. thaliana, UniProt Q9S7J8 1-1001, AlexaFluor488-NHS label)
T1 construct: P1B-type copper ATPase RAN1 (HMA7), Arabidopsis thaliana, full-length; also called full-length RAN1; HMA7; source: E. coli BL21 (DE3) or C43 (DE3), pETEV16b, solubilised with DDM, purified (HisTrap, TEV, Superdex200)
T1 sequence (looked up): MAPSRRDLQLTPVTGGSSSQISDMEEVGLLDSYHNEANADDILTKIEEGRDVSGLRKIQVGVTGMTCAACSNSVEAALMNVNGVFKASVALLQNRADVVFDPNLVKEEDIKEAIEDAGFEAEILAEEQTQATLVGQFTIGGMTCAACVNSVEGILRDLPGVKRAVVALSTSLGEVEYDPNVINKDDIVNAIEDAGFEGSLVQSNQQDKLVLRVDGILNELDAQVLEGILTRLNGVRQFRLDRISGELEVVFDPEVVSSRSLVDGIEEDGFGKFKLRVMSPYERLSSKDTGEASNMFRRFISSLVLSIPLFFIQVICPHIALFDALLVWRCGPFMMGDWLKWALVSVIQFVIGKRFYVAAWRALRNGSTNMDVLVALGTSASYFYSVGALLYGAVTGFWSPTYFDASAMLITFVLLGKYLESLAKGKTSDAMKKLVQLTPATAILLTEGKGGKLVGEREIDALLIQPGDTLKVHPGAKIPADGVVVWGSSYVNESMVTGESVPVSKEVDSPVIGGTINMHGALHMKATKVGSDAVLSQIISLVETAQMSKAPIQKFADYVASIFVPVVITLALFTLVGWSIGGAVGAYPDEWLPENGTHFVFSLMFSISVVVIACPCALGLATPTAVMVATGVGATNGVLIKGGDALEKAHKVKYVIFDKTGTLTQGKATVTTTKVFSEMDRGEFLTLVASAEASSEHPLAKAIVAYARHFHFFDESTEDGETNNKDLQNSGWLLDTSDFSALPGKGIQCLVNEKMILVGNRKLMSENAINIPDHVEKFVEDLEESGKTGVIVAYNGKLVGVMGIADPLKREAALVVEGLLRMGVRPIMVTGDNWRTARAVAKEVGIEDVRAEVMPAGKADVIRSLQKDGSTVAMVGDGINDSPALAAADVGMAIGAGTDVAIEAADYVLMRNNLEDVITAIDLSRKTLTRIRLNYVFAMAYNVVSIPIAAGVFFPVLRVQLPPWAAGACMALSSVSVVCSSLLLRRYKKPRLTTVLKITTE

T2: CterRAN1 (amino acids 299–1001), purified recombinant (A. thaliana, UniProt Q9S7J8 299-1001, AlexaFluor488-NHS label)
T2 construct: RAN1 (HMA7), Arabidopsis thaliana, amino acids 299-1001 (transmembrane copper transport site); also called CterRAN1 mutant; source: E. coli BL21 (DE3) or C43 (DE3), pETEV16b, solubilised with DDM, purified (HisTrap, TEV, Superdex200)
T2 sequence (looked up): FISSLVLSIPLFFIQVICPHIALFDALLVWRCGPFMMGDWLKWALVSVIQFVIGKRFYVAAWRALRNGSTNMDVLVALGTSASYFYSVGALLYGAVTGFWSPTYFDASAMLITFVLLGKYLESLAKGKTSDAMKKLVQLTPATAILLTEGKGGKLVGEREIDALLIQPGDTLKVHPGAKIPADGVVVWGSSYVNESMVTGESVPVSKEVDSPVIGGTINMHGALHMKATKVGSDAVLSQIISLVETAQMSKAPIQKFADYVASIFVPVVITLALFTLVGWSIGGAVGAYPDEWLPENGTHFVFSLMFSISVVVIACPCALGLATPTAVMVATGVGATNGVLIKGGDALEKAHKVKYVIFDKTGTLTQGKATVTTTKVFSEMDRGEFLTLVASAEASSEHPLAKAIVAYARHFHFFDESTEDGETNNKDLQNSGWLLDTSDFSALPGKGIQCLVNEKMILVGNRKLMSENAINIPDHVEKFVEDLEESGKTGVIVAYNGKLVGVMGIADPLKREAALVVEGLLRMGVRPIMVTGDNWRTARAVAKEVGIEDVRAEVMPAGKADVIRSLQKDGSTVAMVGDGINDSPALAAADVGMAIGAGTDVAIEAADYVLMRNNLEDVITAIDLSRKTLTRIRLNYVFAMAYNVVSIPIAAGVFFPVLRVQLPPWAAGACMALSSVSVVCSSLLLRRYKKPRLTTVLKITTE

B1: ETR1^1–157, purified recombinant (domain or fragment, A. thaliana, UniProt P49333 1-157, looked up)
chain: MEVCNCIEPQWPADELLMKYQYISDFFIAIAYFSIPLELIYFVKKSAVFPYRWVLVQFGAFIVLCGATHLINLWTFTTHSRTVALVMTTAKVLTAVVSCATALMLVHIIPDLLSVKTRELFLKNKAAELDREMGLIRTQEETGRHVRMLTHEIRSTL
notes: In detergent (FosCholine-16); also called purified ETR1
B2: ETR1^306–738, purified recombinant (domain or fragment, A. thaliana, UniProt P49333 306-738, looked up)
chain: ALSHAAILEESMRARDLLMEQNVALDLARREAETAIRARNDFLAVMNHEMRTPMHAIIALSSLLQETELTPEQRLMVETILKSSNLLATLMNDVLDLSRLEDGSLQLELGTFNLHTLFREVLNLIKPIAVVKKLPITLNLAPDLPEFVVGDEKRLMQIILNIVGNAVKFSKQGSISVTALVTKSDTRAADFFVVPTGSHFYLRVKVKDSGAGINPQDIPKIFTKFAQTQSLATRSSGGSGLGLAISKRFVNLMEGNIWIESDGLGKGCTAIFDVKLGISERSNESKQSGIPKVPAIPRHSNFTGLKVLVMDENGVSRMVTKGLLVHLGCEVTTVSSNEECLRVVSHEHKVVFMDVCMPGVENYQIALRIHEKFTKQRHQRPLLVALSGNTDKSTKEKCMSFGLDGVLLKPVSLDNIRDVLSDLLEPRVLYEGM
notes: also called extra-membranous part of ETR1; soluble extra-membranous part of the receptor
B3: CCH, full-length, purified recombinant (natural protein, A. thaliana, UniProt O82089 1-121, looked up)
chain: MAQTVVLKVGMSCQGCVGAVNRVLGKMEGVESFDIDIKEQKVTVKGNVEPEAVFQTVSKTGKKTSYWPVEAEAEPKAEADPKVETVTETKTEAETKTEAKVDAKADVEPKAAEAETKPSQV
modifications: AlexaFluor488-NHS label where it was the labelled partner (with ETR1^1–157 and ETR1^306–738); unlabelled where titrated
notes: soluble copper chaperone CCH, Arabidopsis thaliana, full-length; Preloaded with Cu(I) in the copper transfer assay; also called CCH wildtype; full-length CCH; source: E. coli BL21 (DE3) or C43 (DE3), pETEV16b, purified (HisTrap, TEV, Superdex200)
B4: CCHΔ, deletion mutant of CCH lacking the C-terminal extension, purified recombinant (domain or fragment)
chain: MAQTVVLKVGMSCQGCVGAVNRVLGKMEGVESFDIDIKEQKVTVKGNVEPEAVFQTVSKTGKKTSYWPVEAEAEPK
modifications: AlexaFluor488-NHS label where it was the labelled partner (with ETR1^1–157 and ETR1^306–738); unlabelled where titrated
B5: ATX1, purified recombinant (natural protein, A. thaliana, UniProt Q94BT9 1-76, looked up)
chain: MSQTVVLRVAMTCEGCVGAVKRVLGKMEGVESFDVDIKEQKVTVKGNVQPDAVLQTVTKTGKKTAFWEAEGETAKA
modifications: AlexaFluor488-NHS label where it was the labelled partner (with ETR1^1–157 and ETR1^306–738); unlabelled where titrated
notes: soluble copper chaperone ATX1, Arabidopsis thaliana; Preloaded with Cu(I) in the copper transfer assay; also called Cu(I)-ATX1; source: E. coli BL21 (DE3) or C43 (DE3), pETEV16b, purified (HisTrap, TEV, Superdex200)
B6: NterRAN1 (amino acids 1–298), purified recombinant (domain or fragment, A. thaliana, UniProt Q9S7J8 1-298, looked up)
chain: MAPSRRDLQLTPVTGGSSSQISDMEEVGLLDSYHNEANADDILTKIEEGRDVSGLRKIQVGVTGMTCAACSNSVEAALMNVNGVFKASVALLQNRADVVFDPNLVKEEDIKEAIEDAGFEAEILAEEQTQATLVGQFTIGGMTCAACVNSVEGILRDLPGVKRAVVALSTSLGEVEYDPNVINKDDIVNAIEDAGFEGSLVQSNQQDKLVLRVDGILNELDAQVLEGILTRLNGVRQFRLDRISGELEVVFDPEVVSSRSLVDGIEEDGFGKFKLRVMSPYERLSSKDTGEASNMFRR
modifications: AlexaFluor488-NHS label
notes: RAN1 (HMA7), Arabidopsis thaliana, cytosolic N-terminal region, amino acids 1-298; source: E. coli BL21 (DE3) or C43 (DE3), pETEV16b, purified (HisTrap, TEV, Superdex200)

Experiments:
[1] = molecular target: CterRAN1 (amino acids 299–1001), purified recombinant (A. thaliana) (UniProt Q9S7J8); assay: MST; AlexaFluor488-labelled RAN1 or CterRAN1 (20 nM, 50 mM HEPES, 300 mM NaCl, 0.1% DDM, pH 7.5) or NterRAN1 (40 nM, 0.05% Tween20); ETR1^1–157 titrated 10 µM to 0.3 nM in buffer with 0.015% FosCholine-16; triplicates
[2] = molecular target: T1, RAN1, full-length, purified recombinant; assay: as above; conditions: both partners purified
[3] = molecular target: B6; assay: as above; conditions: both partners purified
[4] = molecular target: T1, RAN1, full-length, purified recombinant; assay: MST; AlexaFluor488-labelled RAN1, CterRAN1, NterRAN1, ATX1, CCH or CCHΔ (50 nM) in buffer D (50 mM Tris, 250 mM NaCl, 0.015% FosCholine16, 2.5 mM DTT, 20% glycerol, pH 8.5); ETR1^306–738 titrated 37 µM to 1.1 nM; triplicates; conditions: both partners purified
[5] = molecular target: T2, CterRAN1 (amino acids 299–1001), …; assay: as above; conditions: both partners purified
[6] = molecular target: T1, RAN1, full-length, purified recombinant; assay: MST; AlexaFluor488-labelled RAN1 or CterRAN1 (15 nM, 50 mM HEPES, 300 mM NaCl, 0.1% DDM, pH 7.5) or NterRAN1 (50 nM, same buffer without DDM, 0.05% Tween20); ATX1, CCH or CCHΔ titrated 30 µM to 0.9 nM; triplicates; apparent dissociation constants; conditions: both partners purified
[7] = molecular target: B1; assay: MST; AlexaFluor488-labelled ATX1 (75 nM), CCH (100 nM) or CCHΔ (50 nM) in 50 mM HEPES, 300 mM NaCl, pH 7.5, 0.015% FosCholine-16, 0.05% Tween20; ETR1^1–157 titrated 7.5 µM to 0.2 nM; triplicates; apparent dissociation constants; conditions: both partners purified
[8] = molecular target: B2; assay: MST; AlexaFluor488-labelled RAN1, CterRAN1, NterRAN1, ATX1, CCH or CCHΔ (50 nM) in buffer D (50 mM Tris, 250 mM NaCl, 0.015% FosCholine16, 2.5 mM DTT, 20% glycerol, pH 8.5); ETR1^306–738 titrated 37 µM to 1.1 nM; triplicates; conditions: both partners purified

Binder | Kd [6] | Kd [7] | other results
B1 |  |  | Kd [1]: 2610 nM; Kd [2]: 33 ± 8 nM; Kd [3]: 205 ± 35 nM
B2 |  |  | Kd [4]: 71 ± 17 nM; Kd [5]: 211 ± 38 nM
B3 | 55 ± 13 nM | 526 ± 101 nM | 
B4 | 77 ± 24 nM | 376 ± 93 nM | 
B5 | 41 ± 11 nM | 313 ± 74 nM | 
B6 |  |  | Kd [8]: 3480 ± 315 nM

From PMC6656775, “Soluble and membrane-bound protein carrier mediate direct copper transport to the ethylene receptor family” (Scientific Reports, 2019)
